The target of this test is Human fibrillin-2 recombinant C-terminal half (rFBN2-C) (human) (UniProt P35556). Description: SPR; FBN2-Ct amine-coupled to a CM5 chip (1700 RU), ADAMTS6 constructs as analytes; Biacore 3000, 25 °C, 10 mM Hepes pH 7.4, 0.15 M NaCl, 2 mM CaCl2, 0.005% or 0.05% P20, 30 μl/min; steady state affinity method. For orientation: SPR reads the build-up and loss of mass on a sensor chip optically.
Chain of Recombinant human ADAMTS6-Ct (residues 558-1117) (Q9UKP5 558-1117): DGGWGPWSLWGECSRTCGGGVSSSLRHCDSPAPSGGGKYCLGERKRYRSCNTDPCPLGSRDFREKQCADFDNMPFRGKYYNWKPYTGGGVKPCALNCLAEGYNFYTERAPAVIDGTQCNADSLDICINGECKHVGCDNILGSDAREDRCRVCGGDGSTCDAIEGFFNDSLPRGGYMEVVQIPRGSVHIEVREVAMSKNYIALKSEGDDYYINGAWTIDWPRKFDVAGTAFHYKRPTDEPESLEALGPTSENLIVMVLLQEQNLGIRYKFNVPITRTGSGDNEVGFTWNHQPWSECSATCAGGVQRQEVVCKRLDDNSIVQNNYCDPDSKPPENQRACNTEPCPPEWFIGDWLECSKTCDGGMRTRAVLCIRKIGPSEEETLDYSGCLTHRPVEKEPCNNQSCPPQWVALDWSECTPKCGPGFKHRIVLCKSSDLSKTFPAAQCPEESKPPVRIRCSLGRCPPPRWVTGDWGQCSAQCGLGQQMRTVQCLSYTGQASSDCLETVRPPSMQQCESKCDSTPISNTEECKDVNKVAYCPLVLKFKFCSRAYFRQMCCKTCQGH
Chain of Recombinant human ADAMTS6-4TSR (residues 840-1117) (Q9UKP5 840-1117): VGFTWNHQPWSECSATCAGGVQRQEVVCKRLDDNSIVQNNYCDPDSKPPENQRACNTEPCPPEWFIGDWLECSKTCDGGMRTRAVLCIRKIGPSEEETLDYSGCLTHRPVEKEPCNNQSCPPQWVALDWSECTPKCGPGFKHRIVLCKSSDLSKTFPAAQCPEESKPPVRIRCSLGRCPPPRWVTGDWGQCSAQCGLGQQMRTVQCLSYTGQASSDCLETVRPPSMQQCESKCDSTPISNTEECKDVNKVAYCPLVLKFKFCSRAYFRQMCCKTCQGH
Chain of Recombinant human ADAMTS6-S4TSR (residues 717-1117) (Q9UKP5 717-1117): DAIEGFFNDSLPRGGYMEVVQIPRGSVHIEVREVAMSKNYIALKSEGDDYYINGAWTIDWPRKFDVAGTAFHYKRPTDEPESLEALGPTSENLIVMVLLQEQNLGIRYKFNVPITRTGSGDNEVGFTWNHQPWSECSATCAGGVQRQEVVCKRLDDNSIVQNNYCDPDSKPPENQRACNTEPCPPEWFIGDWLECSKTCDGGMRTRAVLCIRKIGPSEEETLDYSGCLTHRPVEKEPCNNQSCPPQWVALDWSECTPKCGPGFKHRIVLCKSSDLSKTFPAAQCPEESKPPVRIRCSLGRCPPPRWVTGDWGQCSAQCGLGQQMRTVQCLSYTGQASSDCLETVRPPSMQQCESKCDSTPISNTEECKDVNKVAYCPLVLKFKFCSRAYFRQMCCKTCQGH
As a reminder, the Kd is the free concentration of one partner at which half of the binding sites on the other are occupied at equilibrium, for simple one-to-one binding. For “Recombinant human ADAMTS6-4TSR (residues 840-1117) (from UniProt Q9UKP5 840-1117) (domain or fragment)”, the equilibrium dissociation constant (Kd) turned out to be 122 nM.
Regarding “Recombinant human ADAMTS6-Ct (residues 558-1117) (from UniProt Q9UKP5 558-1117) (domain or fragment)”, the dissociation constant Kd is 436 nM.
As for “Recombinant human ADAMTS6-S4TSR (residues 717-1117) (from UniProt Q9UKP5 717-1117) (domain or fragment)”, the dissociation constant (Kd) turned out to be 114 nM.

The record behind these values is publication PMC9064305.
